Measured values: article PMC12204359 (2025)
Read-outs that look alike come from different tables or passages of the source. Positions of bridges follow the written chain, without caps; N, C: chain ends. Non-standard residues stand in square brackets, D forms with d. Primed or numbered codes have the meaning given here. No end group written: not given here. FAM″ = 5(6)-carboxyfluorescein label; pS = N[C@@H](COP(=O)(O)O)C(=O)O; FAM = 5(6)-carboxyfluorescein; S5 = C=CCCC[C@](C)(N)C(=O)O; PEG3′ = PEG3 linker

B1: clathrin heavy chain minimal ankle region (CHC^ankle, aa 358–574) (domain or fragment)
chain: AGAEELFARKFNALFAQGNYSEAAKVAANAPKGILRTPDTIRRFQSVPAQPGQTSPLLQYFGILLDQGQLNKYESLELCRPVLQQGRKQLLEKWLKEDKLECSEELGDLVKSVDPTLALSVYLRANVPNKVIQCFAETGQVQKIVLYAKKVGYTPDWIFLLRNVMRISPDQGQQFAQMLVQDEEPLADITQIVDVFMEYNLIQQCTAFLLDALKNNR
B2: K507A-CHC^ankle (domain or fragment)
chain: AGAEELFARKFNALFAQGNYSEAAKVAANAPKGILRTPDTIRRFQSVPAQPGQTSPLLQYFGILLDQGQLNKYESLELCRPVLQQGRKQLLEKWLKEDKLECSEELGDLVKSVDPTLALSVYLRANVPNKVIQCFAETGQVQKIVLYAKAVGYTPDWIFLLRNVMRISPDQGQQFAQMLVQDEEPLADITQIVDVFMEYNLIQQCTAFLLDALKNNR
B3: biotinylated Avi-tagged ankle region of clathrin (aa 358–574) (domain or fragment)
chain: AGAEELFARKFNALFAQGNYSEAAKVAANAPKGILRTPDTIRRFQSVPAQPGQTSPLLQYFGILLDQGQLNKYESLELCRPVLQQGRKQLLEKWLKEDKLECSEELGDLVKSVDPTLALSVYLRANVPNKVIQCFAETGQVQKIVLYAKKVGYTPDWIFLLRNVMRISPDQGQQFAQMLVQDEEPLADITQIVDVFMEYNLIQQCTAFLLDALKNNR
modifications: biotin

Assays:
[1] = molecular target: B1; experiment: FP
K507A-CHC^ankle [2] = molecular target: B2; experiment: FP
[3] = molecular target: B1; experiment: FP
[4] = molecular target: B3; experiment: SPR
[5] = molecular target: B3; experiment: SPR
K507A-CHC^ankle [6] = molecular target: B2; experiment: FP; remark: listed apart in the source
SP3D = experiment: FP
SP6E = experiment: FP
SP2 = experiment: FP
P2 = experiment: FP
SP3E = experiment: FP
SP6D = experiment: FP
P1 = experiment: FP
SP4E [7] = molecular target: T1, SP4E (human, UniProt Q9Y6A5, two (S)-2-(4-pentenyl)alanine, stapled; FAM on the N-terminus); experiment: FP
SP1 = experiment: FP
Opt P9 (S558D) = experiment: FP
Opt P8 (S558E) = experiment: FP
Opt P8 (pS558) = experiment: FP
Opt P7 (S558E) = experiment: FP
Opt P6 (S558D) = experiment: FP
Opt P8 (S558D) = experiment: FP
Opt P7 (S558D) = experiment: FP
Opt P3 (S558E) = experiment: FP
Opt P3 (pS558) = experiment: FP
Opt P5 (S558D) = experiment: FP
Opt P2 (pS558) = experiment: FP
Opt P1 (S558E) = experiment: FP
Opt P6 (S558E) = experiment: FP
Opt P5 (S558E) = experiment: FP
Opt P1 (pS558) = experiment: FP
Opt P5 (pS558) = experiment: FP
Opt P4 (S558E) = experiment: FP
Opt P9 (S558E) = experiment: FP
Opt P7 (pS558) = experiment: FP
Opt P3 (S558D) = experiment: FP
Opt P9 (pS558) = experiment: FP
Opt P2 (S558D) = experiment: FP
Opt P1 (S558D) = experiment: FP
Opt P4 (S558D) = experiment: FP
Opt P6 (pS558) = experiment: FP
Opt P4 (pS558) = experiment: FP
Opt P2 (S558E) = experiment: FP
SP4E [8] = molecular target: T1, SP4E; experiment: SPR

{FAM}-KESALRKQDLYLKFDPLLR [WT TACC3 S558D]
Kd [1]: 339 µM

{FAM″}-KESALRKQDLY[S5]KFD[S5]LLRDS-NH2 (staple 12-16) [SP5D]
Kd (K507A-CHC^ankle [2]): 152 µM
Kd [3]: 361 µM

{FAM″}-KESALRKQELY[S5]KFD[S5]LLRDS-NH2 (staple 12-16) [SP5E]
Kd (K507A-CHC^ankle [2]): 146 µM
Kd [3]: 234 µM

{FAM}-FKESALRKQ[pS]LYLKFDPLLRDS [FAM-pTACC3 CID peptide (aa 549–570), phosphorylated at S558]
koff [4]: 1.4 s⁻¹
Kd [5]: 23 µM
Kd (K507A-CHC^ankle [6]): 22 µM

B1
Kd (SP3D): 92 µM
Kd (SP6E): 54 µM
Kd (SP2): 145 µM
Kd (P2): 160 µM
Kd (SP3E): 78 µM
Kd (SP6D): 74 µM
Kd (P1): 105 µM
Kd (SP4E [7]): 34 µM
Kd (SP1): 22 µM
Kd (Opt P9 (S558D)): 24.5 µM
Kd (Opt P8 (S558E)): 13 µM
Kd (Opt P8 (pS558)): 15 µM
Kd (Opt P7 (S558E)): 10.1 µM
Kd (Opt P6 (S558D)): 5.5 µM
Kd (Opt P8 (S558D)): 30 µM
Kd (Opt P7 (S558D)): 16.2 µM
Kd (Opt P3 (S558E)): 13 µM
Kd (Opt P3 (pS558)): 3.3 µM
Kd (Opt P5 (S558D)): 16 µM
Kd (Opt P2 (pS558)): 1.2 µM
Kd (Opt P1 (S558E)): 2.4 µM
Kd (Opt P6 (S558E)): 2.8 µM
Kd (Opt P5 (S558E)): 6.7 µM
Kd (Opt P1 (pS558)): 1.7 µM
Kd (Opt P5 (pS558)): 5 µM
Kd (Opt P4 (S558E)): 6.1 µM
Kd (Opt P9 (S558E)): 23.4 µM
Kd (Opt P7 (pS558)): 4.4 µM
Kd (Opt P3 (S558D)): 22.8 µM
Kd (Opt P9 (pS558)): 9.5 µM
Kd (Opt P2 (S558D)): 3.3 µM
Kd (Opt P1 (S558D)): 6.3 µM
Kd (Opt P4 (S558D)): 6.5 µM
Kd (Opt P6 (pS558)): 1.8 µM
Kd (Opt P4 (pS558)): 7.1 µM
Kd (Opt P2 (S558E)): 1.3 µM

B2
Kd (SP3D): 23 µM
Kd (SP6E): 53 µM
Kd (SP2): 23 µM
Kd (P2): 19 µM
Kd (SP3E): 22 µM
Kd (SP6D): 44 µM
Kd (P1): 37 µM
Kd (SP4E [7]): 3.7 µM

B3
Kd (SP4E [8]): 2.8 µM
koff (SP4E [8]): 0.46 s⁻¹

B4: Opt SP TACC3 (designed binder)
chain: {FAM}-KESALRKLELLLEFDPLFRDS
modifications: staple (positions not given here); not fully specified (residues 8, 12, bridges); also: (S)-2-(4-pentenyl)alanine at 557 and 561 not placed in the given letters
koff [4]: 0.04 s⁻¹
Kd [5]: 0.03 µM
Kd (K507A-CHC^ankle [2]): 0.19 µM
Kd [3]: 0.136 µM

{FAM-PEG3′}-KESALRK[S5]ELL[S5]EFDPLFRDS (designed binder, staple 8-12) [Opt PEG3 SP TACC3]
Kd (K507A-CHC^ankle [2]): 0.178 µM
Kd [3]: 0.12 µM

B5: SP4D (peptide)
chain: KESALRKXDLYXKFDPLLRDS
modifications: N-terminal FAM; X557 and X561 are (S)-2-(4-pentenyl)alanine joined as i,i+4 hydrocarbon staple; staple position and limits inferred from Opt SP TACC3 (KESALRK*ELL*…), exact sequence only in Fig 3A
Kd (K507A-CHC^ankle [2]): 5.2 µM
Kd [3]: 39 µM

{FAM″}-KESALRK[S5]ELL[S5]EADPAFRDS-NH2 (staple 8-12) [negative control SP TACC3 (F563A & L566A)]
Kd (K507A-CHC^ankle [2]): 280 µM
